Molecular target: tight-coupled 70S ribosome from Thermus thermophilus (Thermus thermophilus)
Assay: co-sedimentation

elongation factor G (EF-G), Thermus thermophilus HB8 (from UniProt Q5SHN5 1-691) (enzyme)
occupancy of EF-G in the complexes: 60 to 70%

Reference: PMC3272701
